# Source: US20220048947A1
# Where no end group is shown, it is not given here.
# B1: …s (SEQ ID NO: 111) (peptide)
# peptide: MSAVEEELRRRLSPS
# modifications: not fully specified (residue 15); printed as MSAVEEELRRRLSPs
# B2: Mp…s (SEQ ID NO: 112) (peptide)
# peptide: MPSAVEEELRRRLSPS
# modifications: not fully specified (residues 2, 16); printed as MpSAVEEELRRRLSPs
# B3: Ms…s (SEQ ID NO: 113) (peptide)
# peptide: MSSAVEEELRRRLSPS
# modifications: not fully specified (residues 2, 16); printed as MsSAVEEELRRRLSPs
# B4: …s (SEQ ID NO: 109) (peptide)
# peptide: MSAVEEELRRRLSPS
# modifications: not fully specified (residue 15); printed as MSAVEEELRRRLSPs
# B5: sdSG-…g (SEQ ID NO: 92) (peptide)
# peptide: SDSGEEELRRRLSPG
# B6: sdSG--…g (SEQ ID NO: 93) (peptide)
# peptide: SDSGEELRRRLSPG
# B7: ds…-SPg (SEQ ID NO: 94) (peptide)
# peptide: DSGRLEEELRRRSPG
# B8: ds…--SPg (SEQ ID NO: 95) (peptide)
# peptide: DSGRLEEELRRSPG
# B9: dsGRLEEELR---SPg (SEQ ID NO: 96) (peptide)
# peptide: DSGRLEEELRSPG
# B10: sd…g (SEQ ID NO: 97) (peptide)
# peptide: SDSGLEEEARRRLSPG
# B11: sd…g (SEQ ID NO: 98) (peptide)
# peptide: SDSGAEEELRRRLSPG
# B12: ds…g (SEQ ID NO: 99) (peptide)
# peptide: DSGALEEELRRRLSPG
# B13: ds…g (SEQ ID NO: 100) (peptide)
# peptide: DSGALEQEIRRRLSPG
# B14: ds…g (SEQ ID NO: 101) (peptide)
# peptide: DSGRLEQEIRRALSPG
# B15: ds…g (SEQ ID NO: 102) (peptide)
# peptide: DSGRLEQEIRRQLSPG
# B16: ds…g (SEQ ID NO: 103) (peptide)
# peptide: DSGRLEQEIRRELSPG
# B17: pd…a (SEQ ID NO: 104) (peptide)
# peptide: PDSGLEQELRRRLPTA
# B18: dp…a (SEQ ID NO: 105) (peptide)
# peptide: DPSGLEQELRRRLPTA
# B19: ds…a (SEQ ID NO: 106) (peptide)
# peptide: DSPGLEQELRRRLPTA
# B20: ds…a (SEQ ID NO: 107) (peptide)
# peptide: DSGPLEQELRRRLPTA
# Biological target: NbALFA^ST (NbALFA clone 1G5)
# Sequence (VHH, as listed by the source): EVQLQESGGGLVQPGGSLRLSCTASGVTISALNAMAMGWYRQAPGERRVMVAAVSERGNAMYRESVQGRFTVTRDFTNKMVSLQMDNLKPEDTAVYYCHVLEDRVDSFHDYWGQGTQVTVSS
# Assay: peptide elution from NbALFA^ST resin; tag position N
row,Binder,t1/2 [min]
1,B1,< 2
2,B2,< 2
3,B3,< 2
4,B4,< 2

# Biological target: NbALFA^ST (NbALFA clone 1G5)
# Assay: peptide elution from NbALFA^ST resin; tag position M
row,Binder,t1/2 [min]
1,B5,< 2
2,B6,< 2
3,B7,< 2
4,B8,< 2
5,B9,< 2
6,B10,< 2
7,B11,< 2
8,B12,< 2
9,B13,< 2
10,B14,< 2
11,B15,< 2
12,B16,< 2
13,B17,< 2
14,B18,< 2
15,B19,< 2
16,B20,< 2
